One data set deals with alpha-thrombin (native) (Homo sapiens, UniProt P00734;P00734 P00734:315-363,P00734:364-622). Description: ELONA; 20 mM Tris pH 7.5, 150 mM NaCl, 0.1% BSA, 0.1% Tween 20, salmon sperm DNA, RT; competed by 100-fold unlabeled aptamer.
The target in the next data set is thrombin (Rattus norvegicus, UniProt P18292;P18292 P18292:311-359,P18292:360-617). Description: BLI; biotinylated aptamer on streptavidin sensor, 1:1 fit; printed as "-0.6 nM". The settings on record: label: 5' biotin (ELISA, BLI); predicted hairpin, possible G4.

B1: AYA1809002 (ssDNA)
DNA: GCGGTGTTGCTGGGGTTGGGAGGTTGGAGGAAGCAATCGC
Consider B1, for which the Kd – broadly, the free concentration of one partner at which half of the binding sites on the other are occupied at equilibrium, for simple one-to-one binding – in the data set with alpha-thrombin (native) was 10 nM; in the data set with thrombin it was roughly 0.6 nM.

The values are drawn from patent publication US20250304973, “HIGH-AFFINITY THROMBIN APTAMERS AND METHODS OF USE” (Ayass Bioscience LLC, published 2025).
